The source of these data is the Human Domainome abundance scans (Beltran et al. 2025).

± gives the uncertainty stated by the source.

The data set in a line: abundance fitness (aPCA) (normalised: wild type 0, dead -1); higher = more abundant; growth selection in yeast, the domain comes from the species named. Particulars: Homo sapiens.
“Scaffold attachment factor B1 T78Q, Q15424” came in with an abundance fitness of -0.173 ± 0.074. The figure for “Scaffold attachment factor B1 T78R, Q15424” is -0.123 ± 0.055; for “Scaffold attachment factor B1 T78V, Q15424” it is -0.133 ± 0.07. The result for “Scaffold attachment factor B1 T78W, Q15424” reads -0.279 ± 0.065. Substance “Scaffold attachment factor B1 T78Y, Q15424” yielded an abundance fitness of -0.173 ± 0.075. The figure for “Scaffold attachment factor B1 V36C, Q15424” is -0.281 ± 0.072.

The substance “Scaffold attachment factor B1 V36D, Q15424” came in with an abundance fitness of -0.125 ± 0.068. On to “Scaffold attachment factor B1 V36E, Q15424”, for which the abundance fitness was -0.381 ± 0.078. Turning to “Scaffold attachment factor B1 V36F, Q15424”, the abundance fitness was -0.279 ± 0.084.

Consider “Scaffold attachment factor B1 V36G, Q15424”, for which the abundance fitness is -0.348 ± 0.057. The result for “Scaffold attachment factor B1 V36H, Q15424” reads -0.409 ± 0.098; that for “Scaffold attachment factor B1 V36K, Q15424”, -0.19 ± 0.078; that for “Scaffold attachment factor B1 V36L, Q15424”, -0.063 ± 0.053. The result for “Scaffold attachment factor B1 V36M, Q15424” reads -0.031 ± 0.065; that for “Scaffold attachment factor B1 V36N, Q15424”, -0.275 ± 0.064; that for “Scaffold attachment factor B1 V36P, Q15424”, -0.281 ± 0.087. The figure for “Scaffold attachment factor B1 V36Q, Q15424” is -0.417 ± 0.085; for “Scaffold attachment factor B1 V36R, Q15424” it is -0.258 ± 0.052; for “Scaffold attachment factor B1 V36T, Q15424” it is -0.134 ± 0.082. As for “Scaffold attachment factor B1 V36W, Q15424”, the abundance fitness was -0.37 ± 0.07.

On to “Scaffold attachment factor B1 V36Y, Q15424”, for which the abundance fitness was -0.366 ± 0.072. In turn, “Scaffold attachment factor B1 V48C, Q15424” returned an abundance fitness of -0.133 ± 0.07. In the case of “Scaffold attachment factor B1 V48D, Q15424”, the abundance fitness was -0.768 ± 0.11. The figure for “Scaffold attachment factor B1 V48E, Q15424” is -0.231 ± 0.075. In turn, “Scaffold attachment factor B1 V48F, Q15424” came in with an abundance fitness of -0.157 ± 0.085. The figure for “Scaffold attachment factor B1 V48G, Q15424” is -0.195 ± 0.057; for “Scaffold attachment factor B1 V48H, Q15424” it is -0.125 ± 0.08; for “Scaffold attachment factor B1 V48K, Q15424” it is -0.118 ± 0.095. The result for “Scaffold attachment factor B1 V48L, Q15424” reads -0.056 ± 0.065.

“Scaffold attachment factor B1 V48M, Q15424” registered an abundance fitness of -0.083 ± 0.082. The figure for “Scaffold attachment factor B1 V48N, Q15424” is -0.362 ± 0.11; for “Scaffold attachment factor B1 V48P, Q15424” it is -0.691 ± 0.091; for “Scaffold attachment factor B1 V48Q, Q15424” it is -0.388 ± 0.096. The figure for “Scaffold attachment factor B1 V48R, Q15424” is -0.078 ± 0.057. The figure for “Scaffold attachment factor B1 V48S, Q15424” is -0.255 ± 0.059. “Scaffold attachment factor B1 V48T, Q15424” came in with an abundance fitness of -0.254 ± 0.083. The figure for “Scaffold attachment factor B1 V48W, Q15424” is -0.281 ± 0.062.

With “Scaffold attachment factor B1 V56A, Q15424”, the abundance fitness was -0.101 ± 0.059. The figure for “Scaffold attachment factor B1 V56C, Q15424” is -0.177 ± 0.095; for “Scaffold attachment factor B1 V56E, Q15424” it is -0.15 ± 0.078. The result for “Scaffold attachment factor B1 V56F, Q15424” reads -0.414 ± 0.072; that for “Scaffold attachment factor B1 V56G, Q15424”, -0.305 ± 0.063.

“Scaffold attachment factor B1 V56H, Q15424”: the abundance fitness was -0.226 ± 0.076. The result for “Scaffold attachment factor B1 V56I, Q15424” reads -0.126 ± 0.067; that for “Scaffold attachment factor B1 V56K, Q15424”, -0.197 ± 0.064; that for “Scaffold attachment factor B1 V56M, Q15424”, -0.16 ± 0.07. On to “Scaffold attachment factor B1 V56N, Q15424”, for which the abundance fitness is -0.169 ± 0.064. The result for “Scaffold attachment factor B1 V56Q, Q15424” reads -0.249 ± 0.083. The figure for “Scaffold attachment factor B1 V56R, Q15424” is -0.121 ± 0.054; for “Scaffold attachment factor B1 V56S, Q15424” it is -0.129 ± 0.049; for “Scaffold attachment factor B1 V56T, Q15424” it is -0.202 ± 0.069. “Scaffold attachment factor B1 V56W, Q15424” gave an abundance fitness of -0.476 ± 0.052. The result for “Scaffold attachment factor B1 V56Y, Q15424” reads -0.345 ± 0.07.
